The target in this assay is T1, human CD22 on cells (human, UniProt P20273 20-847).
T1 construct: whole, on cells; also called CD22-transfected 300.19 cells; CD22+ Raji cells
T1 sequence (looked up): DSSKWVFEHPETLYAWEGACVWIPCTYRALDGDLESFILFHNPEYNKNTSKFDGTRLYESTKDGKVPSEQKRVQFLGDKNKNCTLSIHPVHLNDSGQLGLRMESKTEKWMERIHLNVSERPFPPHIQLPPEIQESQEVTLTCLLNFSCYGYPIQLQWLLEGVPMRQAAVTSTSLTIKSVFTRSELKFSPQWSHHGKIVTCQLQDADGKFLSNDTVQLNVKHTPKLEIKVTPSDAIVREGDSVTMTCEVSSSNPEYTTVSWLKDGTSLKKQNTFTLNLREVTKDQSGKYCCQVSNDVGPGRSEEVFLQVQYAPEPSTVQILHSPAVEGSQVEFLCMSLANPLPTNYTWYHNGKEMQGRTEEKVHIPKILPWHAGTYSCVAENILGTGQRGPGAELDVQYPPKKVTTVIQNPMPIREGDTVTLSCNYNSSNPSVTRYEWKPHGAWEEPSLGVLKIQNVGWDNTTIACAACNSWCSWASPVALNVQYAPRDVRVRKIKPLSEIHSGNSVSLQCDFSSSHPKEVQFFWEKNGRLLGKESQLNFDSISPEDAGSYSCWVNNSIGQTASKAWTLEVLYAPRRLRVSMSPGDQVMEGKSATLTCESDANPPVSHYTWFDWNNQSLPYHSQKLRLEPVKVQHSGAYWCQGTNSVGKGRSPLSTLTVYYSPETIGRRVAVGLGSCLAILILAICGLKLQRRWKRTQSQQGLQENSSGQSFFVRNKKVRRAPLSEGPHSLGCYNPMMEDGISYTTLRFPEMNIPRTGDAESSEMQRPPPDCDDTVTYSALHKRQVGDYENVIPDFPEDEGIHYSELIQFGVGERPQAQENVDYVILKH
In words: flow cytometry of hybridoma supernatants on CD22-transfected 300.19 cells. The text has this: MoAbs reactive with human CD22 were generated by fusion of NS-1 myeloma cells with splenocytes from a Balb/c mouse previously immunized three times with 30×10⁶ CD22-transfected 300.19 cells. Supernatants from hybridoma-containing wells were screened by flow cytometry for moAbs reactive with CD22-transfected 300.19 cells. Three reactive hybridomas were chosen for further characterization and were subcloned by limiting dilution (clones hCD22.7, hCD22.316 and hCD22.401). The three antibodies were of the IgG1K isotype, as determined using a mouse moAb isotyping kit (Boehringer Mannheim, Mannheim, Germany). Antibody specificity was further validated using a CD22-transfected COS cell line (pUNO1-hCD22; InvivoGen, Toulouse, France), the cell lines Raji, Daudi, […], U266 and Jurkat, and peripheral blood (PB) mononuclear cells (PBMCs). CD22 epitope binding to the hCD22.7 clone was determined by crossblocking with an antibody against the N-terminal domain of CD22 (S-HCL-1). The CD22-specific scFv derived from the hCD22.7 clone was obtained using the mouse IgG Library Primer Set (Progen, Heidelberg, Germany).

B1: anti-CD22 monoclonal antibody clone hCD22.7 (antibody, V domains shown)
VH: EVQLQESGPSLVKPSQTLSLTCSVTGDSITSGYWNWIRKFPGNKLEYMGYISYSGSTYYNPSLKSRISITRDTSKNQYYMQLKSVTTEDTATYYCARYPSPDAMNYWGQGTSVTVSS
VL: not shown
notes: also called hCD22.7 moAb; hCD22.7 clone
For the molecule B1, the binding result is recorded as “binds”.

Values taken from patent publication US20230139885A1 (FUNDACI INSTITUT DE RECERCA CONTRA LA LEUC MIA JOSEP …, published 2023).
